Reference: patent US20260193293A1 (UNIVERSITY OF COPENHAGEN, published 2026)
Non-standard residues stand in square brackets, D forms with d. 2Nal = N[C@@H](Cc1ccc2ccccc2c1)C(=O)O

Tests used:
[1] = biological target: T1, Sushi domains (SD1/2) protein of the GABAB1a (GB1a) subunit, recombinant; test: FP competition
T1 construct: domain: Sushi domains (SD1/2); also called SDs; sushi domain 1/2 (SD1/2) protein
Method: Fluorescence polarization (FP). FP assay was employed to determine the binding affinity of peptides in flat bottom black 384-well plates (Corning Life Science) using a Safire2 plate reader (Tecan). All experiments were conducted in 1×PBS (pH 7.4) containing 1% bovine serum albumin (BSA) at rt. The fluorescence polarization values were measured using excitation/emission wavelengths of 530/580 nm. […] For saturation assay, the millipolarization values were measured after mixing of probes with 12 serial 1 to 1 diluted concentrations of Sushi domains (SD1/2) protein. All experiments were performed in triplicate and the data were plotted to the one-site binding model using GraphPad Prism 9 to calculate the Kd of probes. […] The experiments were performed at least in triplicate and the data were fitted to the sigmoidal dose response curve using GraphPad Prism 9 to obtain the IC₅₀ of peptides. The Kᵢ values were calculated according to Nikolovska-Coleska et al³¹⁰.

[2] = biological target: T2, native full-length GB1a subunit from mouse brain membrane fraction (mouse, UniProt Q9WV18 20-960); test: pull-down from mouse brain lysate, immunoblot
T2 construct: Detected by immunoblot after pull-down from brain lysate; also called native GB1a; native SD
T2 sequence (Q9WV18 20-960): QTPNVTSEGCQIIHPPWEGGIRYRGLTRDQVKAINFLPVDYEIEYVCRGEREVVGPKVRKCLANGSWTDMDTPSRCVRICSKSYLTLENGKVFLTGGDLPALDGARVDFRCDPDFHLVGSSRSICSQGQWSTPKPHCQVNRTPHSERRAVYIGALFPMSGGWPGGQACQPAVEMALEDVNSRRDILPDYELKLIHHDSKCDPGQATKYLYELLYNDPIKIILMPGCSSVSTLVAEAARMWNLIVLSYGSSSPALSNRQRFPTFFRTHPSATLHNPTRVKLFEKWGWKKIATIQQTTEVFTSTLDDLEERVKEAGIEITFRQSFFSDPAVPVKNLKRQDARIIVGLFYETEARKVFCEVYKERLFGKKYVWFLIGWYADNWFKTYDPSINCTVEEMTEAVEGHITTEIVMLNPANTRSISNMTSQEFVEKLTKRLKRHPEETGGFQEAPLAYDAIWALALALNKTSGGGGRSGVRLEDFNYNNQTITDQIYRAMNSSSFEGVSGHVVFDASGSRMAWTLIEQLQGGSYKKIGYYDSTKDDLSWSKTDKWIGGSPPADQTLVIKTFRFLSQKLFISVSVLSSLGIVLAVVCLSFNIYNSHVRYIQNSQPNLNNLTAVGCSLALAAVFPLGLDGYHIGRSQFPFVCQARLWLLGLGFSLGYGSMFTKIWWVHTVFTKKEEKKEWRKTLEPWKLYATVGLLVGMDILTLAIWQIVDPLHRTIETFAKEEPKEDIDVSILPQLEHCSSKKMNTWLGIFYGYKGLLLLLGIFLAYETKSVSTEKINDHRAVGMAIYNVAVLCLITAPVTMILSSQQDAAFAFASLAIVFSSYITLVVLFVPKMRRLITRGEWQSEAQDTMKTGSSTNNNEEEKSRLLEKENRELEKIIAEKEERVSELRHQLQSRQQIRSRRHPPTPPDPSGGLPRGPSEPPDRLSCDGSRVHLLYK
Method: Preparation of whole-brain lysates. Dissected adult mouse brains were placed in ice-cold homogenization buffer (320 mM sucrose, 4 mM HEPES, PH 7.5, 1 mM EDTA, 1 mM EGTA, supplemented with complete EDTA-free protease inhibitor mixture (Roche), 1 mL per 100 mg of brain) and homogenized with a glass-Teflon homogenizer (40 passes) on ice. […] The final brain lysates (at 2 mg/mL protein concentration) were directly used for immunoblot analysis (input lanes) or for pull-down experiments.
Pull-down experiments. […] For immunoblotting analysis, proteins were transferred to nitrocellulose membrane (0.2-μm pore size) (iBlot™ 2 Transfer Stacks, nitrocellulose, mini) using iBlot2 (invitrogen) and then probed with the primary antibodies mouse anti-SD clone 43N12 (1:250) or mouse monoclonal to GABAB1 subunit (abcam, 1:500) in combination with secondary peroxidase-coupled sheep anti-mouse IgG antibody (Cytiva, 1:5000).

T1 sequence (Q9Z0U4 29-158): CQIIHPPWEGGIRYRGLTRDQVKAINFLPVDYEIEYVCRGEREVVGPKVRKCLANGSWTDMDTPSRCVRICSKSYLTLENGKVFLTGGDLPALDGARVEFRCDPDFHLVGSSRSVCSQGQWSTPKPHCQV

- Ki [1]: 31 µM
- binding result [2]: no binding
B1: Scr-20, scrambled version of peptide 20 ((2Nala)EDSDDYDDIDDDW) (peptide)
peptide: Ac-[2Nal]EDSDDYDDIDDDW-NH2
SMILES: CC[C@H](C)[C@H](NC(=O)[C@H](CC(=O)O)NC(=O)[C@H](CC(=O)O)NC(=O)[C@H](Cc1ccc(O)cc1)NC(=O)[C@H](CC(=O)O)NC(=O)[C@H](CC(=O)O)NC(=O)[C@H](CO)NC(=O)[C@H](CC(=O)O)NC(=O)[C@H](CCC(=O)O)NC(=O)[C@H](Cc1ccc2ccccc2c1)NC(C)=O)C(=O)N[C@@H](CC(=O)O)C(=O)N[C@@H](CC(=O)O)C(=O)N[C@@H](CC(=O)O)C(=O)N[C@@H](Cc1c[nH]c2ccccc12)C(N)=O
